Measured values published in patent US20250277022A1 (STAIDSON BEIJING BIOPHARMACEUTICALS, published 2025).
Numbering of substitutions follows the chain as printed. Like-named read-outs stand apart in the source and are kept apart here. Blank lines part the entries; values can stand above or below the binder they belong to.

What was measured:
[1] = target: T1, human TSLP (human, UniProt Q969D9 29-159); assay: ELISA, plate coated with human TSLP, test antibodies as human IgG1
T1 construct: used biotinylated in some assays; also called hTSLP; recombinant human TSLP
Method: (§1) ELISA Screening: Monoclonal scFv antibodies were selected and subjected to ligand binding assays. The first assay was designed to identify scFv antibodies that bound human TSLP and/or cynomolgus TSLP. Briefly, a 96-well plate was coated with human TSLP or cynomolgus TSLP in PBS at 0.1 μg/well and left overnight at 4° C. Before loading the scFv antibodies, the plates were washed with TBST, blocked for 1-2 hours at 37° C. using 5% milk and washed again with TBST. Each scFv sample was first diluted to 40 μg/mL, and 150 μL was added to the first row of wells. The 40 μg/mL scFv samples were then serially diluted at a 1:3 ratio and added to the remaining wells. After incubating for an hour at 37° C., followed by washing with TBST for 6 times, 100 μl of the secondary antibody (HRP labeled mouse anti-flag (1:2500)) was added to each well. After incubation for an hour under 37° C., the plate was washed for 3 times using TBST. TMB was then added at 100 μL/well and incubated for 10-20 minutes at 37° C. 2 M H₂SO₄ was used to stop the reaction. The ELISA results (OD405) were then analyzed and the binding curves were generated by PRISM.

[2] = target: T1, human TSLP; assay: cell-based or functional assay
[3] = target: T1, human TSLP; assay: cell-based or functional assay; remark: listed apart in the source
[4] = target: T2, cynomolgus monkey TSLP (cynomolgus monkey, UniProt A0A7N9CAT7 29-159); assay: ELISA, plate coated with cynomolgus monkey TSLP, test antibodies as human IgG1
T2 construct: also called cynomolgus TSLP; recombinant cynomolgus monkey TSLP
Method: as §1

[5] = target: T3, TSLP-His (human, UniProt Q969D9 29-159, limits assumed); assay: HTRF competition: blocking of TSLP-his binding to HEK293-Flag-hTSLPR-IL7Ra cells, IgG1
T3 construct: also called his-tagged TSLP; not shown: His-tag

[6] = target: T2, cynomolgus monkey TSLP; assay: ELISA, plate coated with cynomolgus monkey TSLP, test antibodies as human IgG1; remark: listed apart in the source
Method: as §1

[7] = target: T1, human TSLP; assay: ELISA, plate coated with human TSLP, test antibodies as human IgG1; remark: listed apart in the source
Method: as §1

[8] = target: T2, cynomolgus monkey TSLP; assay: ELISA, plate coated with cynomolgus monkey TSLP
[9] = target: T2, cynomolgus monkey TSLP; assay: solution equilibrium titration, MSD electrochemiluminescence
[10] = target: T4, human IL-7 (human, UniProt P13232 26-177); assay: ELISA on human IL-7
T4 construct: also called TSLP homologous protein IL-7
T4 sequence (looked up): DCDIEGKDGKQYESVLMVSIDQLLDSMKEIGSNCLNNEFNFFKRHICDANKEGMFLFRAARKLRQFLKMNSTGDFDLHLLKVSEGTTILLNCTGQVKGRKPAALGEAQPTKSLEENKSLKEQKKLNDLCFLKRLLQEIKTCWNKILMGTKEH

[11] = target: T2, cynomolgus monkey TSLP; assay: ELISA, plate coated with cynomolgus monkey TSLP, test antibodies as human IgG1; remark: listed apart in the source
Method: as §1

[12] = target: T1, human TSLP; assay: cell-based or functional assay; remark: listed apart in the source
[13] = target: T1, human TSLP; assay: ELISA, plate coated with human TSLP, test antibodies as human IgG1; remark: listed apart in the source
Method: as §1

[14] = target: T1, human TSLP; assay: cell-based or functional assay; remark: listed apart in the source
[15] = target: T2, cynomolgus monkey TSLP; assay: solution equilibrium titration, MSD electrochemiluminescence, IgG1
[16] = target: T1, human TSLP; assay: as above
Method: Briefly, according to the manufacturer's instructions, the streptavidin MSD plates were blocked 30 mins at RT with PBS with 3% BSA (assay buffer). Serially diluted human TSLP with the concentration from 0 to 50 nM was equilibrated with the tested antibodies with the concentration of 10 pM overnight at RT, wells without antigen were used to determine Bmax values; wells containing only assay buffer were used to determine background. 50 μL of biotinylated human TSLP was coated at 0.2 μg/mL in assay buffer for 30 mins at RT on streptavidin MSD plates. After washing with PBST for 3 times, 50 μL of the equilibrated samples were transferred to those plates and incubated for 30 mins at RT. […] After washing the MSD Plate with PBST for 3 times, 150 μL of MSD read buffer was added to each well, electrochemiluminescence signals of the plate was detected using a Sector Imager 6000 (Meso Scale Discovery, Gaithersburg, MD, USA).

[17] = target: T1, human TSLP; assay: cell-based or functional assay; remark: listed apart in the source
[18] = target: T1, human TSLP; assay: ELISA, plate coated with human TSLP, test antibodies as human IgG1; remark: listed apart in the source
Method: as §1

[19] = target: T2, cynomolgus monkey TSLP; assay: ELISA, plate coated with cynomolgus monkey TSLP, test antibodies as human IgG1; remark: listed apart in the source
Method: as §1

[20] = target: T1, human TSLP; assay: ELISA, biotin labeled full length TSLP on streptavidin plate; full length isoform TSLP, not short isoform
Method: Binding of anti-TSLP antibodies to short form TSLP was determined using an ELISA method. […] A rabbit serum was used as a negative control. Briefly, a 96-well plate was coated with 100 μl of 1 μg/mL streptavidin overnight. The plates were washed with PBST, then 100 μl of 1 μg/ml biotin labeled short TSLP or long TSLP was added to the plates, incubated at 37° C. for 1 hour. […] After incubating the plates for an hour at 37° C., followed by washing with PBST for 6 times, the secondary antibody anti-human-Fc-HRP or anti-rabbit-Fc-AP was added to each well. After incubation for an hour under 37° C., the plate was washed for 3 times using PBST. TMB or pNPP was then added at 100 μL/well and incubated for 10-20 minutes at room temperature. 2 M H₂SO₄ or 3 M NaOH was used to stop the reaction. The ELISA results were then analyzed and the binding curves were generated by GraphPad Prism 5 software (GraphPad Software).

[21] = target: E. coli derived human TSLP (human, UniProt Q969D9 29-159, limits assumed); assay: cell-based or functional assay

T2 sequence (A0A7N9CAT7 entry or part of it): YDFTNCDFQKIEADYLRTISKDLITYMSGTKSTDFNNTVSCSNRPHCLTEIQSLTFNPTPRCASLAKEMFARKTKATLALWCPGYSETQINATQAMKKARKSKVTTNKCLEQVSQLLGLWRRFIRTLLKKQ

B1: TSLP-04 (antibody, V domains shown)
V domain 1: QEQLVQSGDEVKKPGASVKVSCKSSGFTFGSYAISWVRQAPGQGLEWMGMLVPLLGVTNYAEKFQGRVTITADPSTTTTSMELSSLRSEDTAVYYCARGGSNYLYWYFDLWGPGTPITVSS
V domain 2: QSAPIQPRSVSGSPGQSVTISCTGTSSDIGGYNRISWYQQHPGKAPKLMIYDVSKRPSGVSDRFSGSKSGNTASLTISGLQAEDEADYYCSSYAGTDTFVLFGGGTQLTIV
notes: also called parent antibody TSLP-04
- EC50 (read off the curve) [1]: ~0.1 µg/mL
- IC50, inhibition of human TSLP-induced Stat5 activation (Stat5-luciferase reporter, Ba/F3 cells with hTSLPR and hIL7Ra) [2]: 0.0364 µg/mL
- IC50, inhibition of TSLP induced proliferation of Ba/F3-TSLPR-IL7Ra cells (CellTiter-Glo) [3]: 0.15 µg/mL

B3: TSLP-0301 (antibody, V domains shown)
VH: EVQLVESGGGLVQPGGSLRLSCAASGFTFSNYDMTWVRQAPGKGLEWVSSITFASSYIYYADSVKGRFTISRDNAKNSLSLQMNSLRAEDTAVYYCTRGGGAYYGGSLDVWGQGVLVTVSS
VL: DIVMTQTPLSLSVTPGEPASISCRSSQSLLHSNEYTYLHWYLQKPGQSPQLLIYLVSHRASGVPDRFSGSGSDTDFTLKISRVEAEDVGVYYCEQTLQTPFTFGGGTKVEIK
- EC50 (read off the curve) [6]: ~2 µg/mL
- IC50, inhibition of human TSLP-induced Stat5 activation (Stat5-luciferase reporter, Ba/F3 cells with hTSLPR and hIL7Ra) [2]: 0.0417 µg/mL
- IC50, inhibition of TSLP induced proliferation of Ba/F3-TSLPR-IL7Ra cells (CellTiter-Glo) [3]: 0.217 µg/mL

B6: AMG157 (antibody, V domains shown)
VH: QMQLVESGGGVVQPGRSLRLSCAASGFTFRTYGMHWVRQAPGKGLEWVAVIWYDGSNKHYADSVKGRFTITRDNSKNTLNLQMNSLRAEDTAVYYCARAPQWELVHEAFDIWGQGTMVTVSS
VL: SYVLTQPPSVSVAPGQTARITCGGNNLGSKSVHWYQQKPGQAPVLVVYDDSDRPSWIPERFSGSNSGNTATLTISRGEAGDEADYYCQVWDSSSDHVVFGGGTKLTVLG
- EC50 (read off the curve) [8]: ~0.5 µg/mL
- Kd [9]: 0.0176 nM

B7: TSLP-02 (antibody, V domains shown)
VH: QVQLVQSGAEVKKPGSSVKVSCKASGFTFGSYGINWVRQAPGQGLEWLGVIVPLVGVTIYAEKFQGRVTITADTSTSTAYMELSSLRSEDTAVYYCARGQEYFYWYFDLWGQGTLVTVSS
VL: QSALTQPPSASGSPGQSVTISCSGSSSDIGGYNRVSWYQQHPGKAPKLMIYDVSKRPSGVPDRFSGSKSGNTASLTVSGLQAEDEADYYCSSYAGTDTFILFGGGTKLTVL
notes: also called parent antibody TSLP-02
- binding result [10]: no binding
- EC50 (read off the curve) [11]: ~0.7 µg/mL
- IC50, inhibition of TSLP induced proliferation of Ba/F3-TSLPR-IL7Ra cells (CellTiter-Glo) [3]: 0.0175 µg/mL
- IC50, inhibition of human TSLP-induced Stat5 activation (Stat5-luciferase reporter, Ba/F3 cells with hTSLPR and hIL7Ra) [12]: 0.00667 µg/mL
- EC50 (read off the curve) [13]: ~0.09 µg/mL
- IC50 [5]: 0.229 µg/mL

Results, then the binder that gave them:

- EC50 (read off the curve) [4]: ~2 µg/mL
- EC50 (read off the curve) [1]: ~0.1 µg/mL
- IC50, inhibition of human TSLP-induced Stat5 activation (Stat5-luciferase reporter, Ba/F3 cells with hTSLPR and hIL7Ra) [2]: 0.0195 µg/mL
- IC50, inhibition of TSLP induced proliferation of Ba/F3-TSLPR-IL7Ra cells (CellTiter-Glo) [3]: 0.0195 µg/mL
- IC50 [5]: 0.333 µg/mL
B2: TSLP-0401 (antibody, V domains shown)
V domain 1: B1 V domain 1 with L51I, V52I, N59D, S101T
V domain 2: B1 V domain 2 with I35V, D52E, S92A

- EC50 (read off the curve) [6]: ~0.9 µg/mL
- EC50 (read off the curve) [7]: ~0.08 µg/mL
- IC50, inhibition of human TSLP-induced Stat5 activation (Stat5-luciferase reporter, Ba/F3 cells with hTSLPR and hIL7Ra) [2]: 0.0367 µg/mL
- IC50, inhibition of TSLP induced proliferation of Ba/F3-TSLPR-IL7Ra cells (CellTiter-Glo) [3]: 0.198 µg/mL
- IC50 [5]: 0.494 µg/mL
B4: TSLP-03 (antibody, V domains shown)
VH: B3 VH with Y104H
VL: B3 VL with S32I, E34G, F101Y, T102S
notes: also called parent antibody TSLP-03

- EC50 (read off the curve) [7]: ~0.06 µg/mL
B5: TSLP-0302 (antibody, V domains shown)
VH: B3 VH with D33G
VL: B3 VL with N33Y, E34G, H58Y, F101Y

- EC50 (read off the curve) [11]: ~0.7 µg/mL
- IC50, inhibition of human TSLP induced TARC release from human PBMCs (TARC ELISA) [14]: 0.000365 µg/mL
- Kd [15]: 0.00447 nM
- IC50, inhibition of TSLP induced proliferation of Ba/F3-TSLPR-IL7Ra cells (CellTiter-Glo) [3]: 0.0131 µg/mL
- Kd [16]: 0.0211 nM
- IC50, inhibition of human TSLP-induced Stat5 activation (Stat5-luciferase reporter, Ba/F3 cells with hTSLPR and hIL7Ra) [12]: 0.00257 µg/mL
- EC50 (read off the curve) [13]: ~0.08 µg/mL
- IC50 [5]: 0.297 µg/mL
B8: TSLP-0202 (antibody, V domains shown)
VH: B7 VH with L48M, T74E
VL: B7 VL
notes: also called TSLP-0202-IgG1

- IC50, inhibition of human TSLP-induced Stat5 activation (Stat5-luciferase reporter, Ba/F3 cells with hTSLPR and hIL7Ra) [17]: 0.0193 µg/mL
- EC50 (read off the curve) [18]: ~0.03 µg/mL
- EC50 (read off the curve) [19]: ~0.5 µg/mL
- EC50 [20]: 0.0335 µg/mL
B9: TSLP-01 (antibody, V domains shown)
VH: QVQLQESGPGLVKPSETLSLTCAVSGYSISSGYGWSWIRQPPGKGLEWIGYISYYGSISYNPSLKSRVTISRDTSKNQFSLKLSSVTAADTAVYYCARTNLLYFDSWGQGTLVTVSS
VL: EIVMTQSPATLSLSPGERATLSCRASQSVSNNLAWYQQKPGQAPRLLIYDASSRATGIPARFSGSGSGTDFTLTISSLEPEDFAVYYCQQYSDWPQYTFGQGTKVEIK
notes: also called parent antibody TSLP-01

- IC50, inhibition of E. coli derived human TSLP induced Stat5 activation [21]: 0.00259 µg/mL
- IC50, inhibition of human TSLP-induced Stat5 activation (Stat5-luciferase reporter, Ba/F3 cells with hTSLPR and hIL7Ra) [17]: 0.00884 µg/mL
- binding result [10]: no binding
- EC50 (read off the curve) [18]: ~0.04 µg/mL
- IC50, inhibition of human TSLP induced TARC release from human PBMCs (TARC ELISA) [14]: 0.000758 µg/mL
- Kd [15]: 0.0254 nM
- EC50 (read off the curve) [19]: ~0.7 µg/mL
- IC50, inhibition of TSLP induced proliferation of Ba/F3-TSLPR-IL7Ra cells (CellTiter-Glo) [3]: 0.0136 µg/mL
- Kd [16]: 0.044 nM
- IC50 [5]: 0.116 µg/mL
B10: TSLP-0107 (antibody, V domains shown)
VH: B9 VH with A23T, R72V
VL: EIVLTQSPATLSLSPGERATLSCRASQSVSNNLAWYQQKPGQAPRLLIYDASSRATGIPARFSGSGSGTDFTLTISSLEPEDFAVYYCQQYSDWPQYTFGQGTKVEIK
notes: also called TSLP-0107-IgG1
